{"source": "paper PMC9184524", "about": "“Structural Basis for pH-gating of the K^+ channel TWIK1 at the selectivity filter” (Nature Communications, 2022)", "biological_target": "the molecule itself", "assay": "cryo-EM structure; TWIK1 in MSP1D1 nanodiscs (2:1:1 DOPE:POPS:POPC), 20 mM HEPES pH 7.4, 150 mM KCl, 1 mM EDTA; C2 symmetry imposed; homodimer", "data": [{"protein": "Rattus norvegicus TWIK1 (natural protein, TWIK1 (K2P1.1, KCNK1), Rattus norvegicus, Uniprot Q9Z2T2, full length; gene codon-optimized for Pichia pastoris; W20-Y281 modeled at pH 5.5, G24-F280 at pH 7.4; linker SNS and the part of the human rhinovirus 3C site (LEVLFQ/GP) left on the C-terminus after cleavage of EGFP-His10; cleaved on the resin with PPX before SEC and nanodisc reconstitution (MSP1D1 at pH 7.4, MSPE3D1 at pH 5.5); also …) MLQSLAGSSCVRLVERHRSAWCFGFLVLGYLLYLVFGAVVFSSVELPYEDLLRQELRKLKRRFLEEHECLSEPQLEQFLGRVLEASNYGVSVLSNASGNWNWDFTSALFFASTVLSTTGYGHTVPLSDGGKAFCIIYSVIGIPFTLLFLTAVVQRVTVHVTRRPVLYFHIRWGFSKQVVAIVHAVLLGFVTVSCFFFIPAAVFSVLEDDWNFLESFYFCFISLSTIGLGDYVPGEGYNQKFRELYKIGITCYLLLGLIAMLVVLETFCELHELKKFRKMFYVKKDKDEDQVHIMEHDQLSFSSITEQAAGLKEEQKQNEPFVASQSPPYEDGSANHSNSLEVLFQ", "values": [{"measurement": "stoichiometry N", "value": 2}]}]}
